Test results as given in publication PMC5817203, “Characterization of feedback-resistant mevalonate kinases from the methanogenic archaeons Methanosaeta concilii and Methanocella paludicola” (Microbiology, 2017).
Values belong to the molecule of their own block, whether it stands above or below them.

Legend:
[1] = target: mevalonate kinase from Methanosaeta concilii GP6 (Methanosaeta concilii GP6); assay: SEC; gel filtration of the purified enzyme; apparent mass compared with the mass calculated from the sequence; column and buffer not told
[2] = target: the molecule itself; assay: as above

stoichiometry N [1]: 4
Molecule: mevalonate kinase from Methanosaeta concilii GP6 (enzyme)

B1: mevalonate kinase from Methanocella paludicola SANAE (enzyme, UniProt D1YZ39 1-299, looked up)
chain: MTMCSAPGKVFLFGEHAVVYGKRAIACAIDLRTTVEVSRKSRGVHIHSAFKDEPDKNLYIKTAVKRMQKCADIRNVNIAVSSRIPVASGLGSSAAVTVATIGALNEEFSAGLSKKDIAYMAYQTELEVQGAASPTDTFVSTMGGTVVVPDMRTLPPITCGIVVGHTGISKSTSRMVSRVRTLKEKYPDVIDGIMDSIGDISARGEDLIKQNDYRSIGELMNVNQGLLDALGITIPELSLQIYAARQHGAYGAKITGAGGGGCMVAICDDKNCKEIATAIGRSYGDSFISKPTAEGIFIQ
notes: codon-optimised synthetic gene, coding part cloned NdeI/EcoRI into pET-28b(+); No tag removal is described; also called MVK^mpd; mpd; source: E. coli BL21 (DE3), pET-28b(+), purified (His-Trap HP, dialysis)
stoichiometry N [2]: 2
